Tests used:
[1] = molecular target: prokineticin receptor(s) of guinea pig ileal membrane / ileal smooth muscle (guinea pig); experiment: cell-based or functional assay
[2] = molecular target: prokineticin receptor expressed endogenously on M2A7 melanoma cells (ATCC CRL-2500); experiment: cell-based or functional assay

ED50, contraction of guinea-pig ileum longitudinal muscle [1] [nM]	EC50, calcium mobilization in M2A7 melanoma cells (FLIPR) [2] [nM]	Substance
0.46	12	recombinant human prokineticin 1 (refolded, 6xHis-tagged, unlabeled) (from UniProt P58294 20-105) (ligand)
0.9	21	recombinant human prokineticin 2 (refolded, 6xHis-tagged, unlabeled) (from UniProt Q9HC23 28-129) (ligand)

Source: patent publication EP1506971A1
